In the nanobody polyreactivity screen of Harvey et al. (2022):

Experiment: yeast display, Sf9 membrane polyspecificity reagent, FACS + sequencing; frameworks hold sequencing errors
Method in brief: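 Using colony PCR, genes from sorted yeast display clones were amplified, then sequenced on MiSeq at 2 × 250 and filtered by CDR length. The clones had been stained with 10% biotinylated, detergent-solubilized Sf9 membrane reagent for 1 hour at 4 °C and sorted by FACS into low and high (top ~1%) gates on anti-HA and streptavidin fluorescence. Polyreactivity labels come from the gate of origin.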

Sequence | polyreactivity (PSR sort gate)
QVQLVESGGGLVQAGGSLRLSCAASGITFWKYAMGWYRQAPGKERELVAAISGRGGSTYYADSVKGRFTISRDNAKNTVYLQMNSLKPEDTAVYSCDTRTYYRYPVFYWGQGTQVTVSS | high polyreactivity
QVQLVESGGGLVQAGGSLRLSCAASGITFWKYTMGWYIHAPGKERELVASITWSGGSTYYADSVKGRFTISRDNAKNTVYLQMNSLKPEDTAVYYCNAEYLRIDLDYWGQGTQVTVSS | low polyreactivity
QVQLVESGGGLVQAGGSLRLSCAASGITFWLYAMGWSRQAPGKERELVAGIDNGGSTTYADSVKGRFTISRDNAKNTVYLQMNSLNPEDTAVYYCAATFEWDPVYPYNGFIYDYWGQGTQVTVSS | high polyreactivity
QVQLVESGGGLVQAGGSLRLSCAASGITFWTYAMGGYRQAPGKERELVAAISKTVGSTFYADSVKGRFTISRDNAKNTVYLQMNSLKPEDTEVYYCNARRRRTVGWQYNYWGQGTQVTVSS | high polyreactivity
QVQLVESGGGLVQAGGSLRLSCAASGITFWVYVMGWYRQAPGKEREFVADISSGAGTTYYADSVKGRFTISRDNAKNTVYLQMNSLKPEDTAVYYCAARRWWPQWYDYWGQGTQVTVSS | high polyreactivity
QVQLVESGGGLVQAGGSLRLSCAASGITFWYYAMGWYRQAPGKERELVAAINWSGGSTYYADSVKGRFTISRDNAKNTVYLQMNSLKPEDTAVYYCAAEFGLWPYEYGYWGQGTQVTVSS | high polyreactivity
QVQLVESGGGLVQAGGSLRLSCAASGITFWYYAMGWYRQAPGKERELVAAITGGDSTNYADSVKGRFTISRDNAKNTVYLQMNSLKPEDTAVYYCNAEGSYEGYDDYWGHGTQVTVSS | high polyreactivity
QVQLVESGGGLVQAGGSLRLSCAASGITFWYYVMGWYRQAPGKERELFAAITLSGGSTYYADSVKGRFTISRDNAKNTVYLQMNSLKPEDTAVYYCNADGSAGIRGKYDYWGQGTQVTVSS | low polyreactivity
QVQLVESGGGLVQAGGSLRLSCAASGITFYEYAMGWYRQAPGKEREFVAAIDDGDSSTYYADSVKGRFTISRDNAKNTVYLQMNSLKPEDTAVYFCNADPYYDYSLNWGDYWGQGTQVTVSS | low polyreactivity
QVQLVESGGGLVQAGGSLRLSCAASGITFYEYAMGWYRQAPGKEREFVAAIDDGDSSTYYADSVKGRFTISRDNGKNTVYLQMNTLKPEDSAVFDCNADPYYDYSLNWGDYWGQGTQVTVSS | low polyreactivity
QVQLVESGGGLVQAGGSLRLSCAASGITFYEYAMGWYRQAPGKERELVATITSGGNTNYADSVKGRFTISRDNAKNTVYLQMNSLKPEDTAVYYCNKEWDGDGYTDDWDYDYWGQGTQVTVSS | low polyreactivity
QVQLVESGGGLVQAGGSLRLSCAASGITFYFYAMGWYRQAPGKERELVARITSRGTRTYYADSVKGRFTISRDNAKNTVYLQMNSLKPEDTAVYYCAAGVSWDDYYWGQGTQVTVSS | high polyreactivity
QVQLVESGGGLVQAGGSLRLSCAASGITFYFYAMGWYRQAPGKERELVASITSSGSTDYADSVKGRFTISRDNAKNTVYLQMNSLKPEDTAVSYCAADVQKHFYSFGDERGFPFDYWGQGTQVTVSS | low polyreactivity
QVQLVESGGGLVQAGGSLRLSCAASGITFYFYVMGWYRQAPGKERELVADISTSDDSTYYADSVKGRFTISRDNAKNTVYLQMNSLKPEDTAVYYCATATRTYSAWYEYDYWGQGTQVTVSS | low polyreactivity
QVQLVESGGGLVQAGGSLRLSCAASGITFYGNAMGWYRQAPGKERELVAAISSSGGTTYYADSVKGRFTISRDNAKNTVYLQMNSLIPEDTAVYYCNALHPVVYYGTYFNLRRYDYWGQGTQVTVSS | low polyreactivity
QVQLVESGGGLVQAGGSLRLSCAASGITFYGYAMAWYRQAPGKERELVATITSGGSTYYADSVKGRFTISRDNAKNTVYLQMNSLKPEDTAVYYCAASRWYRRTRYGYWGQGTQVTVSS | high polyreactivity
QVQLVESGGGLVQAGGSLRLSCAASGITFYGYAMGWYRQAPGKERELVAAISRSGGSTYYADSVKGRFTISRDHAKNTVYVQMNSLKPEDTAVYYCNTDYGSSYNYWGQGTQVTVSS | high polyreactivity
QVQLVESGGGLVQAGGSLRLSCAASGITFYGYAMGWYRQAPGKERELVARITISGRTNYADYVKGRFTISRDNAKNTVYLQMNSLKPEDTAVYYCNAVYRGYYSGELDYWGQGTQVTVSS | high polyreactivity
QVQLVESGGGLVQAGGSLRLSCAASGITFYGYAMGWYRQAPGQERELVAAISSRGGSTYYADSVKGRFTISRDNAKNTVYLQMNSLKPEDTAVYNCAAVYYTGEYYYWGQGTQVTVSS | high polyreactivity
QVQLVESGGGLVQAGGSLRLSCAASGITFYGYDMGWYRQAPGKERELFAAISRSGGSTYYADSVKGRFTISRDNAKNTVYLQMNSLKPEDTAVYYCAADKQGYLGRTAFRYYYWGQGTQVTVSS | high polyreactivity
QVQLVESGGGLVQAGGSLRLSCAASGITFYGYDMGWYRQAPGKERELVAAITSDGITNYADSVKGRFTISRDNAKNTVYLQMNSLKPEDTAVYYCAADLSFYRRYEWYYYWGQGTQVTVSS | low polyreactivity
QVQLVESGGGLVQAGGSLRLSCAASGITFYINAMGWYRQAPGKERELVAVIDSRGSSTFYADSVKGRFTISRDNAKNTVYLVMKSLKPEDTAVYYCAAEPFWDYYATFYWKYGYWGQGTQVTVSS | low polyreactivity

Sequence | polyreactivity (PSR sort gate)
QVQLVESGGGLVQAGGSLRLSCAASGITFYIYAMGWYRQAPGKERELVATISWSDGRTYYADSVKGRFTISRDNAKNTVYCQMNSLKPEDTAVYYCAADWWYYQFDYEYWGQGTQVTVSS | low polyreactivity
QVQLVESGGGLVQAGGSLRLSCAASGITFYIYAMGWYRQAPGKERELVATISWSDGRTYYADSVKGRFTISRDNAKNTVYLQINSLKPEDTAVYYCAADWWYYQFDYEYWGQGTQVTVSS | low polyreactivity
QVQLVESGGGLVQAGGSLRLSCAASGITFYKKVMGWYRPAPGKEKELVAAISSSGGSTYYADSVKGRFTISRDNAKNTVYLQRNSLKPEDTAVYYCAADDPLYTPYEFDYWGQGTQVTVSS | low polyreactivity
QVQLVESGGGLVQAGGSLRLSCAASGITFYLYAMGWYRQAPGKERELVAAISSSGGRTYYADSVKGRFTISRDNAKNTVYLQMNSLKPEDTAVYYCAARRYGVPPTYDYWGQGTQVTVSS | high polyreactivity
QVQLVESGGGLVQAGGSLRLSCAASGITFYLYAMGWYRQAPGKERELVAAISSSGGSTYYADSVKGRFTISRDNAKNTVYLQMNSLKPEDTAVYYCNARRRTVPYRYYYWGQGTQVTVSS | high polyreactivity
QVQLVESGGGLVQAGGSLRLSCAASGITFYPNDMGWYRQAPGKERELVAAITTNDGDTYYADSVKGRFTISRDNAKNTVYVQMNSLKPEDTAVYYCATGIDKGPVWVTYSTDYDYWGQGTQVTVSS | low polyreactivity
QVQLVESGGGLVQAGGSLRLSCAASGITFYPYAMGWYRQAPGKERELVAAITLSTGTTYYADSVKGRFTISRDNAKNTVYLQMNSLKPEDTAVYYCAVEGYWYAGWYAMDYWGQGTQVTVSS | low polyreactivity
QVQLVESGGGLVQAGGSLRLSCAASGITFYRKAMGRYRQAPGKERELVAAISRRGGITRYADSVKGRFTISRDNAKNTVYLQMNSLKPEDTAVYYCATVRYRWYSFQAERYYWGQGTQVTVSS | high polyreactivity
QVQLVESGGGLVQAGGSLRLSCAASGITFYRYALGWYRQAPGKEREFVAAISRSGVSTYYADSVKGRFTISRDNAKNTVYLQMNSLKPEDTAVYYCNKVYYPGFGYEGDYWGQGTQVTVSS | high polyreactivity
QVQLVESGGGLVQAGGSLRLSCAASGITFYRYAMGWYRQAPGKEREFVAAINYGGSSTRYADSVKGRFTISRDNAKNTVYLQMNCLKPEDTAVYYCAVEKRYPRRRYDYWGQGTQVTVSS | low polyreactivity
QVQLVESGGGLVQAGGSLRLSCAASGITFYRYAMGWYRQAPGKERELVAGITRSGGSTYYADSVKGRFTISRDNAKNTVYLQMNSLKPEDTAVYYCAARIYSFRTKGGYGYWGQGTQVTVSS | high polyreactivity
QVQLVESGGGLVQAGGSLRLSCAASGITFYRYAMGWYRQAPGKERELVASISSRGSSTYYADSVKGRFTISRDNAKNTVYLQMNSLKPEDTAVYYCAKSRGSRGFVASTYNYWGQGTQVTVSS | high polyreactivity
QVQLVESGGGLVQAGGSLRLSCAASGITFYRYAMGWYRQEPGKERELVAAISRSGGSTYYADSVKGRFTISRDNAKNTVYLQMNSLKPQDTEVYYCADYILGNRVGYDYWGQGTQVTVSS | high polyreactivity
QVQLVESGGGLVQAGGSLRLSCAASGITFYRYDMVWYRQAPGKERELVAAISRSGGSTYYADSVKGRFTISRDNAKNTVYLQMNSLKPEDSAVYYCAAYILGNRDGYDYWGQGTQVTVSS | high polyreactivity
QVQLVESGGGLVQAGGSLRLSCAASGITFYRYFMGWYRPAPGKERELVAAISRGGGSTYYADSVKGRFTISRDNAKNTVYLQMNSLKPEDTAVYYCNARYLYRHDYWGQGTQVTVSS | high polyreactivity
QVQLVESGGGLVQAGGSLRLSCAASGITFYRYTMGWYRQAPGKERELVAAIRSAGSTYYADSVKGRFTISRDNAKNTVYLQMNSLKPEDTAVYYCAATYYRYNVPYYGGNGGDYWGQGTQVTVSS | high polyreactivity
QVQLVESGGGLVQAGGSLRLSCAASGITFYRYVMGWYRQAPGKERELVAAITSRGGSTSYADSVKGRFTISRDNAKNTVYLQMNSLKPEDTAVYYCAAVYRRDYDYWGQGTQVTVSS | high polyreactivity
QVQLVESGGGLVQAGGSLRLSCAASGITFYRYVMGWYRQAPGKERELVAAITTGDSTYYADSVKGRFTISRDNAKNTVYLLMNSLKPEDTAVYYCAAVYYSALANYDYWGQGTQVTVSS | low polyreactivity
QVQLVESGGGLVQAGGSLRLSCAASGITFYSNAMGWYRQAPGKERELVAAISYRGGSTYYADSVKGRFTISRDNAKNTVYLQMNSLKPEDTAVYYCNKEVDWGWGRISYDSWGQGTQVTVSS | low polyreactivity
QVQLVESGGGLVQAGGSLRLSCAASGITFYSYTMGWYIQAPGKERELVAAISDNGGRTFYADSVKGRFTISRDNAKNTVYLQMNSLKPEDTAVYYCAADSYWYRFLKSRYDYWGQGTQVTVSS | low polyreactivity
QVQLVESGGGLVQAGGSLRLSCAASGITFYSYTMGWYRQAPGKERELVAAISDNGGRTFYADSVKGRFTISRDNAKNTVYLQMNSLKPEDTAVDYCAADYSYYTSFRYDYWGQGTQVTVSS | low polyreactivity
